Laboratory results published in article PMC11900802.

How the values were obtained:
[1] = immunofluorescence, nuclear FOXD1; details: glycan lost
[2] = Western blot of FOXD1; details: glycan lost; control: vector control

B1: FOXD1: tunicamycin (protein)
parent chain: MTLSTEMSDASGLAEETDIDVVGEGEDEEDEEEEDDDEGGGGGPRLAVPAQRRRRRRSYAGEDELEDLEEEEDDDDILLAPPAGGSPAPPGPAPAAGAGAGGGGGGGGAGGGGSAGSGAKNPLVKPPYSYIALITMAILQSPKKRLTLSEICEFISGRFPYYREKFPAWQNSIRHNLSLNDCFVKIPREPGNPGKGNYWTLDPESADMFDNGSFLRRRKRFKRQPLLPPNAAAAESLLLRGAGAAGGAGDPAAAAALFPPAPPPPPHAYGYGPYGCGYGLQLPPYAPPSALFAAAAAAAAAAAFHPHSPPPPPPPHGAAAELARTAFGYRPHPLGAALPGPLPASAAKAGGPGASALARSPFSIESIIGGSLGPAAAAAAAAQAAAAAQASPSPSPVAAPPAPGSSGGGCAAQAAVGPAAALTRSLVAAAAAAASSVSSSAALGTLHQGTALSSVENFTARISNC
[1]; control: untreated
  localisation_or_trafficking: decreases

B2: FOXD1: GEM+TM (protein)
parent chain: MTLSTEMSDASGLAEETDIDVVGEGEDEEDEEEEDDDEGGGGGPRLAVPAQRRRRRRSYAGEDELEDLEEEEDDDDILLAPPAGGSPAPPGPAPAAGAGAGGGGGGGGAGGGGSAGSGAKNPLVKPPYSYIALITMAILQSPKKRLTLSEICEFISGRFPYYREKFPAWQNSIRHNLSLNDCFVKIPREPGNPGKGNYWTLDPESADMFDNGSFLRRRKRFKRQPLLPPNAAAAESLLLRGAGAAGGAGDPAAAAALFPPAPPPPPHAYGYGPYGCGYGLQLPPYAPPSALFAAAAAAAAAAAFHPHSPPPPPPPHGAAAELARTAFGYRPHPLGAALPGPLPASAAKAGGPGASALARSPFSIESIIGGSLGPAAAAAAAAQAAAAAQASPSPSPVAAPPAPGSSGGGCAAQAAVGPAAALTRSLVAAAAAAASSVSSSAALGTLHQGTALSSVENFTARISNC
[1]; control: GEM alone
  localisation_or_trafficking: decreases

B3: FOXD1: ALG3 knockdown (protein)
parent chain: MTLSTEMSDASGLAEETDIDVVGEGEDEEDEEEEDDDEGGGGGPRLAVPAQRRRRRRSYAGEDELEDLEEEEDDDDILLAPPAGGSPAPPGPAPAAGAGAGGGGGGGGAGGGGSAGSGAKNPLVKPPYSYIALITMAILQSPKKRLTLSEICEFISGRFPYYREKFPAWQNSIRHNLSLNDCFVKIPREPGNPGKGNYWTLDPESADMFDNGSFLRRRKRFKRQPLLPPNAAAAESLLLRGAGAAGGAGDPAAAAALFPPAPPPPPHAYGYGPYGCGYGLQLPPYAPPSALFAAAAAAAAAAAFHPHSPPPPPPPHGAAAELARTAFGYRPHPLGAALPGPLPASAAKAGGPGASALARSPFSIESIIGGSLGPAAAAAAAAQAAAAAQASPSPSPVAAPPAPGSSGGGCAAQAAVGPAAALTRSLVAAAAAAASSVSSSAALGTLHQGTALSSVENFTARISNC
[1]; control: vector control
  localisation_or_trafficking: decreases
[2]
  expression_or_secretion: decreases
